The record followed here is US12173292B2, “Controlling bacterial biofilms” (LANXESS Corporation, priority 2019, dated 2024).

In one test the test system is D. vulgaris biofilm. Description: Biofilm formation assay, crystal violet staining, 96-well plates. Type of test: cell-based, Desulfovibrio vulgaris Hildenborough. Here is the method: (§1) D. vulgaris, D. desulfuricans and plasmid-transformed strains of both of these bacteria were grown anaerobically in Modified Baar's medium (300 μL) in 96-well micro-titer plates (Fisher Scientific, cat no. 07-200-656) for 24 hours at 30° C. without shaking, after which time the planktonic cell turbidity in each well was measured spectrophotometrically at 620 nm using a Sunrise™ microplate reader (TECAN, Switzerland). The plates were then incubated under the same conditions for an additional 24 to 48 hours, after which biofilm formation was measured by crystal violet staining. For biofilm dispersal assays, 24 hours after seeding the plates for biofilm growth, arabinose (10 mM) was added to strains harboring plasmids allowing arabinose-based induction of DVU2956 (SEQ ID NO:2). The arabinose-treated strains were then incubated anaerobically for another 24 hours without shaking, after which time biofilm formation was measured by crystal violet staining.
For crystal violet staining, the liquid portion of the cultures was discarded and the wells were washed by dipping the plates into 1 L of distilled water, after which the plates were dried with paper towel. Crystal violet (0.1%, 300 μL) was added to each well and the plates were incubated for 20 minutes at room temperature. After discarding the bulk of the staining solution, the wells were washed three times with distilled water as above to remove unbound crystal violet. The wells were then soaked for 5 minutes in 95% ethanol (300 μL) to dissolve the remaining (bound) crystal violet, which was then measured spectrophotometrically at 540 nm using the Sunrise™ microplate reader. Normalized biofilm formation percentage values were calculated based on the ratio of […] to compare the degree of biofilm formation or dispersal.

The test system of another test is D. desulfuricans biofilm. Described as above. It counts as cell-based, Desulfovibrio desulfuricans (DSM 12129). As to conditions: at 24 hours; D. desulfuricans/pVLT33-Pdvu0304-dvu2956 vs D. desulfuricans/pVLT33-Pdvu0304. Here is the method: as §1
(§2) For crystal violet staining, the liquid portion of the cultures was discarded and the wells were washed by dipping the plates into 1 L of distilled water, after which the plates were dried with paper towel. […] The wells were then soaked for 5 minutes in 95% ethanol (300 μL) to dissolve the remaining (bound) crystal violet, which was then measured spectrophotometrically at 540 nm using the Sunrise™ microplate reader. […]

Test [1] deals with Pdvu2956 (dvu2956 gene regulatory sequence). Briefly: Pdvu2956-mNeonGreen reporter fluorescence assay. It counts as cell-based, E. coli BL21(DE3). As to conditions: ectopic expression induced by 1 mM IPTG for 90 minutes; E. coli/pMQ70-Pdvu2956-mNeonGreen/pET27b-dvu2956; excitation 425 nm, emission 517 nm. The source says: A D. vulgaris dvu2956 gene regulatory sequence (SEQ ID NO:12), which comprises (in 5′ to 3′ direction) predicted promoter (SEQ ID NO:13) and 5′-untranslated region (5′-UTR) sequences (SEQ ID NO:14), was linked upstream of a synthetic ribosome binding site (RBS, SEQ ID NO:15) and a codon-optimized nucleotide sequence (SEQ ID NO:16) encoding a monomeric yellow-green fluorescent protein (mNeonGreen™, GenBank® Accession No. KC295282). This nucleotide sequence (provided as SEQ ID NO:17) was constructed in E. coli TG1 to render plasmid construct pMQ70-Pdvu2956-mNeonGreen (8164 bp) and then transferred into D. vulgaris (wild type) and E. coli strain BL21(DE3), the latter of which was already transformed with plasmid pET27b-dvu2956 (pET27b-dvu2956 allows for IPTG-induced expression of ectopic DVU2956 [SEQ ID NO:2]). PCR analyses confirmed the presence of plasmids pMQ70-Pdvu2956-mNeonGreen (in both strains) and pET27b-dvu2956 (in E. coli). Additional D. vulgaris and E. coli strains that were transformed with plasmid pMQ70 were prepared, and served as negative controls in the fluorescence assays described below.
A similar analysis was conducted to test whether Pdvu2956 can heterologously drive gene expression in bacteria other than sulfate-reducing bacteria. […]

The subject of test [2] is established D. vulgaris biofilms. Description: Biofilm dispersal assay, arabinose induction, crystal violet staining. Type of test: cell-based, Desulfovibrio vulgaris Hildenborough. Conditions: after 24 hours; expression from inducible promoter PBAD on pMQ70; vs D. vulgaris/pMQ70. Here is the method: as §1, §2
In test [3] the test system is D. vulgaris biofilm cells. Briefly: Hydrogen sulfide production assay (methylene blue spectrophotometric). It counts as cell-based, Desulfovibrio vulgaris Hildenborough. Here is the method:
Hydrogen sulfide (H2S) by D. vulgaris strains was measured via a methylene blue spectrophotometric assay (Rabinowitz, 1978, Methods Enzymol. 53:275-277; incorporated herein by reference). Briefly, in this assay, N,N-dimethyl-p-phenylenediamine dihydrochloride is converted into methylthioninium chloride (methylene blue) by reacting with H2S dissolved in hydrochloride acid in the presence of ferric chloride. For a 96-well screening format, D. vulgaris was anaerobically grown in Modified Baar's medium in a 96-well plate (starting turbidity/OD of 0.05 at 600 nm, 150-μL culture volume) and incubated for 48 hours for biofilm formation. Anaerobically, 25 μL of each biofilm culture was transferred to another 96-well plate containing 225 μL deoxygenated water per well to render a 10-fold dilution of the transferred culture. Next, 5% N,N-dimethyl-p-phenylenediamine dihydrochloride (24.5 μL, prepared in 5.5 N HCl) (Sigma-Aldrich, cat. no. 536-46-9) was added to each well. After mixing the wells gently by pipetting and anaerobically incubating the mixes at room temperature for 3 minutes, the 96-well plate was removed from the anaerobic chamber and the absorbance at 670 nm of each well was measured using a Sunrise™ microplate reader.
For a more rigorous H2S assay, sealed glass vials were used to prevent H2S loss. D. vulgaris strains were grown anaerobically for 7 to 10 days in 10 mL of Modified Baar's medium with 2.5 g of sterilized glass wool to promote biofilm formation. Supernatants from these cultures were transferred by syringe to another sealed vial for dilution with 10 mL of PBS buffer. Anaerobically, 1 mL of diluted sample was then transferred by syringe to another sealed bottle with 125 μL of 12% sodium hydroxide and 3.25 mL of 1% zinc acetate (to fix the sulfide from H2S by forming ZnS precipitates). […] Water (2.125 mL) was added and mixed, and then at least 1 mL of each reaction was removed to determine absorbance at 670 nm.

The mark [4] stands for this setting: at 48 hours, biofilm-specific expression from pVLT33-Pdvu0304-based construct in D. vulgaris, vs wild type and D. vulgaris/pVLT33-Pdvu0304.

B1: DVU2960: D. vulgaris Hildenborough protein, 474 aa, SEQ ID NO:4, expressed from pVLT33-Pdvu0304-dvu2960 (protein)
chain: MKQASLPAGARIAGLVGRELALGPVFDAIPTGLAVLDADLRICLMNRALETMTGFTTAEVAGIPCRHVLRASVCLHRCPTRTAVCDATGGNAPCHAQEGDLLNRHRRRIPVRLTLAPLHDAQGQLCGWLHTAEDLSLVRELEERCSKGQASGPLVGRSVVMEELFRTVQALAQTETPVLITGETGTGKDAVAETIHKASPRGREPFVKASLSSLPDFLVESELFGHRKGAFPGAEEDKPGRFRMAQGGTLCLSELGDLPPAMQGRLVTFLDEGLVWPVGATDPVRCDVRLLVASNLDLEAMVASGRLREDLYSRLAAVRIHLPPLRERGEDLEFLLSHYLAHFAARLRKTIHGFSGKSLRVLLAYGFPGNVRELKNIVEYAATLCTGEVVMPSHLPAYLFHTRPAAAPPRAIERDTPKGAAEDEASARSSVVDLERRLIVDALARAGNRKGEAARILGWGRSTLWRKMKQFGLE
modifications: Desulfovibrio vulgaris Hildenborough
As for B1, the “inhibition of biofilm formation” value in the test on D. vulgaris biofilm (setting [4]) is on record as 95%.

B2: DVU2964: D. vulgaris Hildenborough protein, 219 aa, SEQ ID NO:10, expressed from pVLT33-Pdvu0304-dvu2964 (protein)
chain: MRENACVGCLTASASHELQNALAVIRESAGLMQDLIALGGENIPRRERIVELLSLIQQQVARGGELAGGLNTLGHAWEEDDGDLARILEEFVILAGRMGRMRSVTVGLAPGESGLRAPSAGLALRVLLFDLLQTCLEEAPGCALTFAPARRDGIPGIHLRVGLARCDATTDVLRRLDAQLARLGARKEPDNGHGTPARDEPDGVLYYFTACPSATGHRA
modifications: Desulfovibrio vulgaris Hildenborough
Regarding B2, the “inhibition of biofilm formation” value in the test with D. vulgaris biofilm (setting [4]) came out at 45%.

B3: DVU2956: D. vulgaris Hildenborough sigma 54-dependent enhancer-binding protein, 345 aa, SEQ ID NO:2, expressed in the bacteria from plasmids (protein)
chain: MSGKKLPHSGNSLPIEGTVSPQRETLQNGTDFLLLSGVMQRLRVLASQVASSDAPVLIHGETGTGKELFARLIHDMGIRAKKPFVAVNCGVHEGELFADKFFGHEQGAFTGAHRMSQGCFELASEGTLFLDEVGEIPGANQADFLRVLEEKRFRRIGGQRDIPFQARIVAASNRDLQEMVGQGQFRADLFYRLNVIPVVLPPLRARKEEVVPLARHFLTHYGDKYHRPGVRFAPETEQALAAYQWPGNVRELKNLVERIALLAPEGVLGPEHLPLELRSAAAVEVGVPHEVPEDLSLDRARREAEVRVILKAMRATGGNKGEAARLLGVSPRTLRYKFAEYALRF
modifications: Desulfovibrio vulgaris Hildenborough
As to B3, the “inhibition of biofilm formation” value stood at 48±11% in the test on D. vulgaris biofilm (at 24 hours, D. vulgaris (dvu2956-) complemented with pMQ70-Pdvu2956-dvu2956, vs D. vulgaris (dvu2956-)/pMQ70-Pdvu2956) and 78±9% with D. desulfuricans biofilm. Moreover, the “higher fluorescence signal vs negative control” value in test [1] is around 14 fold. For the same molecule, the “dispersal of established biofilms” value in test [2] came out at 42±4%. The “decrease of H2S production” value in test [3] (96-well culture, D. vulgaris/pVLT33-Pdvu0304-dvu2956 vs D. vulgaris/pVLT33-Pdvu0304) is recorded as 51±2%; in test [3] (D. vulgaris (dvu2956-)/pMQ70-Pdvu2956-dvu2956 vs D. vulgaris (dvu2956-)/pMQ70-Pdvu2956), 45±13%. Further, the “inhibition of H2S production” value in test [3] (sealed vials, biofilm-specific expression) turned out to be 34.6±0.6%.

B4: DVU2962: D. vulgaris Hildenborough protein, 577 aa, SEQ ID NO:8, expressed from pVLT33-Pdvu0304-dvu2962 (protein)
chain: MKNPLGTMLSRLRSVFDVPDEIAPERYRMLRRKITLLMTAVSVLPLLILTAVSYHQYQSTLTREIVTPVRALVNKTRHSFELFLAERSSTVSLLAKTYSMAELSDEKNLNRIFLALKGEFPGFVDLGVIDGRGVQVGYVGPYDVRGKNYSEADWYNRTRVKGVYISDVFMGFRRFPHIAIAVQRMNPDGSSWMLRATIETTQFDRLIASMGLDPESDAFLINTAGVLQTNSRFYGNVLDVMPMPVPHLSYEPSIIDTEDPEGRQIFLSSAFLQNADFAIVAVKPKTEILRPWTSLRSDLLIFVAFSVALIISAAFGFTDMLVRRMRDSDERRIAAFVQIEHTQKLSSIGRLAAGVAHEINNPLAIINEKAGLAADLIALSQDFPQKERFSAIVEAISRSVDRCRSITHRLLGFSRRMDATYEQLDVNGILKETMSFLEQEAVHRSITIGTSLDAGLPRITSDRGQLQQVFLNIINNAFAAVQDGGSVTLTTFAADGGMVGVSIQDNGKGMSEEVQRHIFEPFFTTKKTAGTGLGMFITYGIIKRLGGEIGINSREGVGTTVTVYLPQDAPAPQSLEN
modifications: Desulfovibrio vulgaris Hildenborough
Turning to B4, in the test with D. vulgaris biofilm (setting [4]), the “inhibition of biofilm formation” value was determined as 90%.
